Experimental data taken from the supplement of paper PMC12636428.

test system: Saccharomyces cerevisiae; assay: transcriptional activation domain activity (GFP:mCherry ratio, weighted mean of sorted bins, harmonized to initial dataset scale) (arbitrary fluorescence ratio units); higher = stronger transcriptional activation; conditions: beta-estradiol 1 µM; induction time 4 h
Protocol: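 53-aa protein tiles (fungal proteins plus yeast TF control tiles) fused C-terminally to a DBD-estrogen-binding domain-mCherry synthetic TF, integrated in S. cerevisiae (URA3 locus) with a GFP reporter. Cells were induced with 1 uM beta-estradiol for 4 h at 30 C, FACS-sorted into 8 bins by GFP:mCherry ratio and barcodes sequenced. Activity is the read-weighted mean bin fluorescence (GFP:mCherry), averaged over barcodes (median 12); tiles under 50 reads were discarded. New active-learning values were harmonized by linear fit onto the scale of the initial (Hummel et al.) dataset. The assay saturates at low and high signal.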

Point of comparison: “MVLLGSCTLLIGKTITPYILVHKTGILYPLLFFFFFSLSLSFFYFFIGTFPLG”, “transcriptional activation domain activity” value 52100. Against it:
- EQYKLVCEALHERATFLEIAPYLAHQLPIMLPLYKWWQLPYYWAGCKVYDLLA — lower, 43400
- GEKAEGANGEGSGAEGSRRRPSGRGRGRGRGRGGRGGRGGRATNEAGDEKKEG — lower, 22500
- VLMDERISLKNDLSSQDVALFLSLASSVASGSLLLRPPNVWIVVWTYLHRRHG — higher, 66900
- SSATDSNPNTNLEDSLFFDHDLLSSSITNTNNGQGSNNGRQASKDDTLNLLDT — lower, 37900
- ASEKKEASQRPPPAVEKKTVPKPSSKPENRPGPSKPVVPKADSKKEAPKPAPS — lower, 9920
- PEPVAAPAPANDGFSEVQHNRGGRGRGGQYQGEGRGGYRGRGRGGPRGGGEFR — lower, 24500
- YPLLVCLLDLVKNNSLDDTGWLIGLGCTLWYENSIYIVRKAMELCLRAQEKID — lower, 52000
- APMGRRTFAVDVDESGNSLAKKVKAARVKGYNYIIVVGERDLERGTAAVECVV — lower, 36000
- AVKAEPESTAPSLVKEENTEDTKPAPSSTAPAEPSSGGMFRKRKAPAAGAGSR — lower, 39900
- MASQATTLRGYNIRKRDNVFEPKSSENLNSLNQSEEEGHIGRWPPLGYEAVSA — lower, 50300
- FDRLIPEWAHAWKPVEGIWMLWWIKHQIFFALGVLQLLNQYWFFLILRILVRT — higher, 56300
- AMLMSLFVSVFCVYGVFIHVAASALQYQIVFFSPCIYMMLICGLSFLCCESPR — higher, 75700
- TLQRIVLDFFTAPCFSDVIVADILTSFARVFGDLSTVFFTLVWGSCPHWIPPF — higher, 61200
- IRSWGDAVLAHSPLFDHVDGDAACPCSRCCSGVIAWSFWERVIRIVPMHLFSA — higher, 64500
- PAPAAKKEEKPAAATAEAPKEEAAAAVAAEEPKETKEEEKKEEAKEEKKEEAK — lower, 15800
- ENNVPLLERFREFPWLLSDLIFPFMMEYMLVWYLIWETILNILAELTYFADRS — lower, 27300
- IILDLLLRFSKVENVISQAVDSPPMGRLGCCAIVTGSAVAWALCTATRFRLVL — higher, 52600
- NSSNNNNNNNIISNRKQASKEKRKIPRHIQTIDEKLINDSNYLAFLKFDDLEN — higher, 83500
- EKGKSIWIGRDNLEVNVETLALQWYEDQGFKGIHSETRIITTLFGILFWDIIF — higher, 55900
- MCVFLFFVLWLLQKLGLLALALRCYVQKNSLIFFLFFFLVLDYIFFFLHWCKH — lower, 35300
- ALRREYLTLNGFMPSRINWAIQSSGVDYLHLLIIAMEHLITRFRLSARLAITV — higher, 53800
- EAEAEAAPEAEAAKPKNRGGRPKKAVLPAAAAPAPKEKEEPKPKATAGRKRKA — lower, 33400
- IYFTFRILLYAIWCALAKVHRWNKTTLWNTLCKYLSRLVAATKSRTKTHAPWL — lower, 49300
- LYVIIFPILYFSLLLFYFFSSCGGVGWWAVGWHGVLCFFVLLGWVGLGGCCLC — lower, 35900
- MLLLLIIRKVLILGKPFFINHLHILLYPDTVLSPFLLLSFPLTLPLSLLLLLL — higher, 106000
- EDEAQGEEGEKAKKSRKRKRDEAAEGGKQKKEKAPPKPRAKKGSAEPKPKKAA — lower, 25900
- FLLFLSFGGLGGGIYSLCFGHIFSSLFLLFVLFSTSFPYMGPQLHVVMMPTCT — lower, 40500
- FRCLFLLFLLFSLICCRAISLQKHCLCLTYASSTALFVIVFILLLFWYLIIIT — higher, 76100
- RGWMVYIGFLVVFYSAAGFGLSVVNNFTLLIGVYKFVYPITTTLFQLIFTQIF — lower, 50200
- DIDMEDVDGDAAPSAKKAKASKKRKKDAESDGEQEKACLSFRTILLHSLIFIQ — lower, 41900
- MLAMISFFMYPPPLLFFFALWLSFSLFSIHKPPWLLFQNVHFYVLFLFFSFLA — lower, 36300
- AINVSFLHWIYIFHATGKHKYASQLARYLKNLHEVHPPELSQWLIEVFRKCHI — higher, 61400
- AGGGNHPPPPPPPPPPAGRSGGAPPPPPPPPPPPPGAGGGNHPPPPPPPPPPP — lower, 23500
- ILGKLLYHMILLYLCVDLSLSEQIEHLSAATHLTMILYRLGGKDFIPTNLYIN — lower, 45000
- TQPIDIAASNQQNGEIAQLWDFNVDQFNMTPSNSSGSATISAPNSFTSDIPQY — higher, 57300
- EHPARARVDKNRTKTSAREVHPARAAREEHPARAYADKNRTKTSARDVHPAGA — lower, 40400
- SDDVNSTMEDDDTPIEKHWLNIDQPLGSEKETTTLSILWMLLLLQLSHICTDP — higher, 76600
- KPEPAGEKAEVANGEGAPEGNRRRPSGRGRGRGRGGRGARGGRDAKEEGAEEA — lower, 51900
- YTIGFVGFVMSLQKGYLKQQFGLFCWVHMSLLIIVLSSHFVINNILEGLIWFW — higher, 54600
- ARGMYLMVDVVANQFGILCSRADGTSIDDFDFSGLWPFSSSSYFHPMCWLYWL — higher, 64000
- AGDAFGAVESVKSASDIMSPVSGEVVEANVALKDKPALINRSPEEEGWIVRVR — higher, 52900
- MQGSGKLSGLIFLSCFFSLLFFFFSFLFFYFFLLSNQLLFFCPNLVLDVALFT — lower, 18000
- SQSRSRSASRSRSPPRKREKRDSSDREDSRDRRRNKSESRSRSRSPAKSAGSA — lower, 16300
- MPLMIIFRFTIFYFYFVSIFFFLFLLLVGEFFFLLSFFFFLSFVFFLFTISYF — lower, 37100
- KFNNRLSSDSTSPIKYEADVSAGGKISEDNSTKGSSKESSAIADELDWLKFGI — lower, 40600
- FQTFYSNFKRKVLVWSLRFTNLTYNQPLVWHATFVYILALLSMPWFKAKFIPS — lower, 43800
- AWLIHCILLFPWSSKLFPSWCGHMTSCYEFYVLGAISVCNCAVVFVYWLILLV — higher, 56600
- MFACPYLGLLCLSVTSMPYPFSQLFQPFISPRFCPECAPFSFFLHSFLGFHLT — higher, 52200
- HPLSQRYVLIMSITRLCIPLYFYGYEDNFIGHETTHWIWILVIYVSLQVLILF — lower, 40200
- LCLPFFLSLLPFFQSWRYVNISLLLFFYSSSIFSPSFPFIYYFTVFFLSFLLL — lower, 29900
- NWNKYNWLIIAILSNFTSWFFHVWHHKLYSAFHDTSRIKNWNLFKTIQFWLFI — lower, 45300
- LVRDGILYFFVYTYRNALYQVYVVFGLAAVATLTLNAQLVLNTFLFIIFYVLV — higher, 56900
- LLESLGHDDSLEFFFVSGMLRYVRFGFWRRIIGYQFRNLRTQITRSIYYDWYR — lower, 45500
- DDDKKETGAFTHQWILLAKSRASHILLCITYFYASVLAVVSVGSVNWRNVAVK — higher, 63000
- MSASPPTGSGGTDERQRQRVTRACEPCRRKKIRCDGRKPCSACADAQAGNGCA — lower, 34300
- YVVLEVGLNVQLDRMAQSDARMVVHALSGGPFIDVVRWVPLRMSSGAFQIGLR — higher, 68300
- MSLSFFFFSFFFLFFIIIFGRSRWLCYDGFGFFFFSFFLLMLAVFLFLLTYFT — lower, 50800
- MITRCHLIIFLFWLLLLLLLFRCWATFLCISAWLFAKQEKQTFCQPCLLIMRV — lower, 38200
- LWSHSILILACLIPYLVLRCSTYYCYQAISYIDSNDLAWSNVSIRFDVAMLVV — higher, 69200
- MWCTRWVLPFLLLPAPTSPPYFVLIFLLSLVMHARPCIYCIFFLIMLFITSNY — lower, 47000
